According to EP4667489A1 (Kyinno Biotechnology Co., Ltd., dated 2025):
Read-outs that look alike come from different tables or passages of the source.

T1: human LAG3 expressed on 293T-LAG3 cells (human, UniProt P18627 23-525)
T1 construct: whole, on cells; 293T cells stably expressing human LAG3 (Kyinno KC-0214); also called LAG3-expressing cells
T1 sequence (looked up): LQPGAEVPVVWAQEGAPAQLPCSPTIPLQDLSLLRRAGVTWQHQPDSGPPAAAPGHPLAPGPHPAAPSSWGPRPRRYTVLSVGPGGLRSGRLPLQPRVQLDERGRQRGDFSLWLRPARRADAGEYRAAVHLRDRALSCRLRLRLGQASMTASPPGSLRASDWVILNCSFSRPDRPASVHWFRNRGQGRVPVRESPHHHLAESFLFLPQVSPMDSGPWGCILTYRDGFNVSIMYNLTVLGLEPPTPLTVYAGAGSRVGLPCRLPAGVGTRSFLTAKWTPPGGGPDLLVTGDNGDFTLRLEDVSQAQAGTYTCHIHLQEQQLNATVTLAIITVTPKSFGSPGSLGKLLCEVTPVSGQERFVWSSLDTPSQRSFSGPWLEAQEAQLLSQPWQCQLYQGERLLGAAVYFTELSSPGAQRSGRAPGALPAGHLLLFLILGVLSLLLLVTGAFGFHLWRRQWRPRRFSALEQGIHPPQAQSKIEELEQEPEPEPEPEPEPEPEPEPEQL

T2: LAG3-His (ACRO, Cat No.: LA3-H5222) (UniProt P18627 23-450)
T2 construct: bought protein; not shown: His tag
T2 sequence (looked up): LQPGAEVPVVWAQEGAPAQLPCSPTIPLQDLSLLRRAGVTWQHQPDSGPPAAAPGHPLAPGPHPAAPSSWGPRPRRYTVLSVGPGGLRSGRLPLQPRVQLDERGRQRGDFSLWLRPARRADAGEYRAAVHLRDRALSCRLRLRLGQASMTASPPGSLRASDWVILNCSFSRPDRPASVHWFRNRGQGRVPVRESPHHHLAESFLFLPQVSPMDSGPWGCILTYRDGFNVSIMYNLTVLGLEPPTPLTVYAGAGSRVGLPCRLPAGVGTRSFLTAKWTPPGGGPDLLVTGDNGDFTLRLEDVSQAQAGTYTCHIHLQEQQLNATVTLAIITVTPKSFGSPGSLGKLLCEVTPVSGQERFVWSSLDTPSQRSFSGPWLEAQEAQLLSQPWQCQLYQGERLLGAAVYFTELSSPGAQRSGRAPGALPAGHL

T3: LAG3-hFc (fusion protein of the human LAG3 extracellular domain and human IgG1-Fc) (human, UniProt P18627 23-450)
T3 construct: extracellular domain; not shown: human IgG1-Fc, Genbank CAC20454.1
T3 sequence (looked up): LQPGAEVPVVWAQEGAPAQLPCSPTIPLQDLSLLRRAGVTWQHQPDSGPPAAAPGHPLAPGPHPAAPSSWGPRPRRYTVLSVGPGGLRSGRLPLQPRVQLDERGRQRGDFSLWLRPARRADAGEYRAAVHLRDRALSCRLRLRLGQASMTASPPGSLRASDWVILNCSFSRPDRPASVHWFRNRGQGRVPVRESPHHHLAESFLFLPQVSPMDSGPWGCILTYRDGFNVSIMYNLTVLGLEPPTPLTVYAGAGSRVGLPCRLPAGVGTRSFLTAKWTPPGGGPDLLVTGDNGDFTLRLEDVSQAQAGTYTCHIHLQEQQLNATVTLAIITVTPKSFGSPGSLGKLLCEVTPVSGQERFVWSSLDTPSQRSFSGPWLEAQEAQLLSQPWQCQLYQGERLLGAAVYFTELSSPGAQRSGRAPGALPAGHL


Columns and labels:
[1] = target: T4, human PD1 expressed on 293T-PD1 cells (human, UniProt Q15116 25-288); test: flow cytometry on 293T-PD1 cells
T4 construct: whole, on cells; 293T cells stably expressing human PD1 (Kyinno KC-0204); also called PD1-expressing cells; Jurkat NFAT-PD1-luc cells

[2] = target: T1, human LAG3 expressed on 293T-LAG3 cells; test: flow cytometry on 293T-LAG3 cells
[3] = target: T5, PD1-His (Kyinno, Cat No.: KP-1023) (UniProt Q15116 25-167, limits assumed); test: BLI (ForteBio Octet), PD1-His as mobile phase
T5 construct: bought protein; not shown: His tag

[4] = target: T2, LAG3-His (ACRO, Cat No.: LA3-H5222); test: BLI (ForteBio Octet), LAG3-His as mobile phase
[5] = target: T3, LAG3-hFc (fusion protein of the human …); test: flow cytometry, blocking of LAG3 fusion protein binding to Daudi cells (procedure of Example 5)
[6] = target: T6, PD1-hFc (fusion protein of the human PD1 extracellular domain and human IgG1-Fc) (human, UniProt Q15116 25-170); test: flow cytometry, blocking of PD1 fusion protein binding to 293T-PDL1 cells (procedure of Example 8)
T6 construct: extracellular domain; also called human PD1-hFc; not shown: human IgG1-Fc, Genbank CAC20454.1

[7] = target: T4, human PD1 expressed on 293T-PD1 cells; test: flow cytometry on 293T-PD1 cells; remark: listed apart in the source
[8] = target: T1, human LAG3 expressed on 293T-LAG3 cells; test: flow cytometry on 293T-LAG3 cells; remark: listed apart in the source
[9] = target: T5, PD1-His (Kyinno, Cat No.: KP-1023); test: BLI (ForteBio Octet), PD1-His as mobile phase; remark: listed apart in the source
[10] = target: T2, LAG3-His (ACRO, Cat No.: LA3-H5222); test: BLI (ForteBio Octet), LAG3-His as mobile phase; remark: listed apart in the source
[11] = target: T3, LAG3-hFc (fusion protein of the human …); test: flow cytometry, blocking of LAG3 fusion protein binding to Daudi cells (procedure of Example 5); remark: listed apart in the source
[12] = target: T6, PD1-hFc (fusion protein of the human …); test: flow cytometry, blocking of PD1 fusion protein binding to 293T-PDL1 cells (procedure of Example 8); remark: listed apart in the source

T6 sequence (Q15116 25-170): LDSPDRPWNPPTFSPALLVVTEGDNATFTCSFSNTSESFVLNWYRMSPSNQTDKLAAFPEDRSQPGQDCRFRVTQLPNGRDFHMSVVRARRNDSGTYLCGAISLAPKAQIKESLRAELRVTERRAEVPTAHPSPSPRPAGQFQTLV
T4 sequence (Q15116 25-288): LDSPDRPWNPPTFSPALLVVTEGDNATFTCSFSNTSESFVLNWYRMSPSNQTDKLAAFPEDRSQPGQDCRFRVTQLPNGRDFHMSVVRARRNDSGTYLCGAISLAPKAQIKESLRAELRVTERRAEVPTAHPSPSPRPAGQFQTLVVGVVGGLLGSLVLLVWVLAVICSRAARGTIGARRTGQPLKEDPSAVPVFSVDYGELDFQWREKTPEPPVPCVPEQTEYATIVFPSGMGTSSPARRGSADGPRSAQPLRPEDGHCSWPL
T5 sequence (Q15116 25-167 limits assumed): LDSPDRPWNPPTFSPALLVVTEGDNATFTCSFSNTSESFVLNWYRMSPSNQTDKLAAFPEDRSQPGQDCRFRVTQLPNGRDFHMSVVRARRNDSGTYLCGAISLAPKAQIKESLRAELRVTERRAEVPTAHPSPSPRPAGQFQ

Binder	EC50 [1]	EC50 [2]	Kd [3]	koff [3]	kon [3]	Kd [4]	koff [4]	kon [4]	IC50 [5]	IC50 [6]	EC50 [7]	EC50 [8]	Kd [9]	koff [9]	kon [9]	Kd [10]	koff [10]	kon [10]	IC50 [11]	IC50 [12]
KA-1835 H28G27V4×H107D1210-hIgG4M (bispecific antibody, PD1×LAG3 bispecific; first heavy chain targets PD1 (hIgG4 Hole), second targets LAG3 (hIgG4 Knob); common light chain 1) heavy 1: QVQLVESGGGLVKPGGSLRLSCAASGFTFSDYGMHWIRQAPGKGLEWVAYISSGSYTIYYADTVRDRFTISRDSAKNSLYLQMNSLRAEDTAVYYCVRRGPGYFGSTALDYWGQGTTVTVSSASTKGPSVFPLAPCSRSTSESTAALGCLVKDYFPEPVTVSWNSGALTSGVHTFPAVLQSSGLYSLSSVVTVPSSSLGTKTYTCNVDHKPSNTKVDKRVESKYGPPCPPCPAPEFLGGPSVFLFPPKPKDTLMISRTPEVTCVVVDVSQEDPEVQFNWYVDGVEVHNAKTKPREEQFNSTYRVVSVLTVLHQDWLNGKEYKCKVSNKGLPSSIEKTISKAKGQPREPQVCTLPPSQEEMTKNQVSLSCAVKGFYPSDIAVEWESNGQPENNYKTTPPVLDSDGSFFLVSRLTVDKSRWQEGNVFSCSVMHEALHNHYTQKSLSLSLG heavy 2: QVQLQESGPGLVKPSETLSLTCTVSGYSFTSGYYWNWIRQPPGKGLEWIGYVSYFGTANYNPALKNRVTISRDTSKNQFSLKLSSVTAADTAVYYCARGEEWDWSFDVWGQGTTVTVSSASTKGPSVFPLAPCSRSTSESTAALGCLVKDYFPEPVTVSWNSGALTSGVHTFPAVLQSSGLYSLSSVVTVPSSSLGTKTYTCNVDHKPSNTKVDKRVESKYGPPCPPCPAPEFLGGPSVFLFPPKPKDTLMISRTPEVTCVVVDVSQEDPEVQFNWYVDGVEVHNAKTKPREEQFNSTYRVVSVLTVLHQDWLNGKEYKCKVSNKGLPSSIEKTISKAKGQPREPQVYTLPPCQEEMTKNQVSLWCLVKGFYPSDIAVEWESNGQPENNYKTTPPVLDSDGSFFLYSRLTVDKSRWQEGNVFSCSVMHEALHNHYTQKSLSLSLG light: DIQITQSPSSLSASVGDRVTITCSATSGVSYMHWYQQKPGKAPKRLIYDTSRLASGVPSRFSGSGSGTDYTLTISSLQPEDFATYYCQQWSSNPPYTFGQGTRLEIKRTVAAPSVFIFPPSDEQLKSGTASVVCLLNNFYPREAKVQWKVDNALQSGNSQESVTEQDSKDSTYSLSSTLTLSKADYEKHKVYACEVTHQGLSSPVTKSFNRGEC	0.651 µg/mL	0.228 µg/mL	4.73 nM	0.00105 s⁻¹	222000 M⁻¹ s⁻¹	0.168 nM	0.000195 s⁻¹	1.16e+06 M⁻¹ s⁻¹	0.879 µg/mL	0.435 µg/mL										
KA-1836 H107D1210×H28G27V4-hIgG4M (bispecific antibody, PD1×LAG3 bispecific; first heavy chain targets PD1 (hIgG4 Knob), second targets LAG3 (hIgG4 Hole); common light chain 1) heavy 1: QVQLVESGGGLVKPGGSLRLSCAASGFTFSDYGMHWIRQAPGKGLEWVAYISSGSYTIYYADTVRDRFTISRDSAKNSLYLQMNSLRAEDTAVYYCVRRGPGYFGSTALDYWGQGTTVTVSSASTKGPSVFPLAPCSRSTSESTAALGCLVKDYFPEPVTVSWNSGALTSGVHTFPAVLQSSGLYSLSSVVTVPSSSLGTKTYTCNVDHKPSNTKVDKRVESKYGPPCPPCPAPEFLGGPSVFLFPPKPKDTLMISRTPEVTCVVVDVSQEDPEVQFNWYVDGVEVHNAKTKPREEQFNSTYRVVSVLTVLHQDWLNGKEYKCKVSNKGLPSSIEKTISKAKGQPREPQVYTLPPCQEEMTKNQVSLWCLVKGFYPSDIAVEWESNGQPENNYKTTPPVLDSDGSFFLYSRLTVDKSRWQEGNVFSCSVMHEALHNHYTQKSLSLSLG heavy 2: QVQLQESGPGLVKPSETLSLTCTVSGYSFTSGYYWNWIRQPPGKGLEWIGYVSYFGTANYNPALKNRVTISRDTSKNQFSLKLSSVTAADTAVYYCARGEEWDWSFDVWGQGTTVTVSSASTKGPSVFPLAPCSRSTSESTAALGCLVKDYFPEPVTVSWNSGALTSGVHTFPAVLQSSGLYSLSSVVTVPSSSLGTKTYTCNVDHKPSNTKVDKRVESKYGPPCPPCPAPEFLGGPSVFLFPPKPKDTLMISRTPEVTCVVVDVSQEDPEVQFNWYVDGVEVHNAKTKPREEQFNSTYRVVSVLTVLHQDWLNGKEYKCKVSNKGLPSSIEKTISKAKGQPREPQVCTLPPSQEEMTKNQVSLSCAVKGFYPSDIAVEWESNGQPENNYKTTPPVLDSDGSFFLVSRLTVDKSRWQEGNVFSCSVMHEALHNHYTQKSLSLSLG light: DIQITQSPSSLSASVGDRVTITCSATSGVSYMHWYQQKPGKAPKRLIYDTSRLASGVPSRFSGSGSGTDYTLTISSLQPEDFATYYCQQWSSNPPYTFGQGTRLEIKRTVAAPSVFIFPPSDEQLKSGTASVVCLLNNFYPREAKVQWKVDNALQSGNSQESVTEQDSKDSTYSLSSTLTLSKADYEKHKVYACEVTHQGLSSPVTKSFNRGEC	0.33 µg/mL	0.557 µg/mL	6.55 nM	0.00116 s⁻¹	178000 M⁻¹ s⁻¹	0.18 nM	0.000266 s⁻¹	1.48e+06 M⁻¹ s⁻¹	0.972 µg/mL	0.302 µg/mL										
KA-1793 H28G27V4×H107D1210-hIgG4M (bispecific antibody, PD1×LAG3 bispecific; first heavy chain targets PD1 (hIgG4 Hole), second targets LAG3 (hIgG4 Knob); common light chain 2) heavy 1: QVQLVESGGGLVKPGGSLRLSCAASGFTFSDYGMHWIRQAPGKGLEWVAYISSGSYTIYYADTVRDRFTISRDSAKNSLYLQMNSLRAEDTAVYYCVRRGPGYFGSTALDYWGQGTTVTVSSASTKGPSVFPLAPCSRSTSESTAALGCLVKDYFPEPVTVSWNSGALTSGVHTFPAVLQSSGLYSLSSVVTVPSSSLGTKTYTCNVDHKPSNTKVDKRVESKYGPPCPPCPAPEFLGGPSVFLFPPKPKDTLMISRTPEVTCVVVDVSQEDPEVQFNWYVDGVEVHNAKTKPREEQFNSTYRVVSVLTVLHQDWLNGKEYKCKVSNKGLPSSIEKTISKAKGQPREPQVCTLPPSQEEMTKNQVSLSCAVKGFYPSDIAVEWESNGQPENNYKTTPPVLDSDGSFFLVSRLTVDKSRWQEGNVFSCSVMHEALHNHYTQKSLSLSLG heavy 2: QVQLQESGPGLVKPSETLSLTCTVSGYSFTSGYYWNWIRQPPGKGLEWIGYVSYFGTANYNPALKNRVTISRDTSKNQFSLKLSSVTAADTAVYYCARGEEWDWSFDVWGQGTTVTVSSASTKGPSVFPLAPCSRSTSESTAALGCLVKDYFPEPVTVSWNSGALTSGVHTFPAVLQSSGLYSLSSVVTVPSSSLGTKTYTCNVDHKPSNTKVDKRVESKYGPPCPPCPAPEFLGGPSVFLFPPKPKDTLMISRTPEVTCVVVDVSQEDPEVQFNWYVDGVEVHNAKTKPREEQFNSTYRVVSVLTVLHQDWLNGKEYKCKVSNKGLPSSIEKTISKAKGQPREPQVYTLPPCQEEMTKNQVSLWCLVKGFYPSDIAVEWESNGQPENNYKTTPPVLDSDGSFFLYSRLTVDKSRWQEGNVFSCSVMHEALHNHYTQKSLSLSLG light: DIQITQSPSSLSASVGDRVTITCSASSSVSYMHWYQQKPGKAPKRLIYDTSKLASGVPSRFSGSGSGTDYTLTISSLQPEDFATYYCQQWSSNPPYTFGQGTRLEIKRTVAAPSVFIFPPSDEQLKSGTASVVCLLNNFYPREAKVQWKVDNALQSGNSQESVTEQDSKDSTYSLSSTLTLSKADYEKHKVYACEVTHQGLSSPVTKSFNRGEC											0.3 µg/mL	0.0931 µg/mL	6.87 nM	0.00255 s⁻¹	372000 M⁻¹ s⁻¹	0.175 nM	0.000111 s⁻¹	633000 M⁻¹ s⁻¹	0.88 µg/mL	0.232 µg/mL
